The record followed here is article PMC11615899 (The Journal of Biological Chemistry, 2024).

This series concerns the molecule itself. In words: SEC. (Size exclusion chromatography separates by hydrodynamic size, large species first.)

B1: F-BAR_(REMIND): the [70–347] region of TgREMIND with an N-terminal His-tag and five cysteines replaced (domain or fragment, Toxoplasma gondii, UniProt S8GLL7 70-347, looked up)
chain: APANATAENAFSFKEDLTSDWSLAVSRVDSGRTLLERLRAALLLRANAAVEQASKMESLVQTFVATNLESKTVMSAVNALRLEAVHQADHAREFAEAIRRDVVEGTLTNTIHNHYLVLQQIKADGSEAQKELTLATVDHQKAMHRYLRASKEAAAAAVKAQAAEGEAPNVRTELALSAIRRAVEAKAAEDEHRESVARLNAAAQANERKMAIILQSLQDMDEKRMLSFRDALRKAMVYQAAYLRNVQYDLEQTIKTVDAVDPMADLQEFLGKYRLPKK
Take B1: the “stoichiometry N” value was found to be 6.

As a reminder, the stoichiometry N is a count of units in the complex or per binding partner.
